Source: patent publication US20050063973A1 (URIFER, published 2005)

Target: T1, TMF/ARA160 (endogenous protein of C2C12, NIH3T3 and T127 cells) (UniProt B9EKI3 1-1091)
T1 construct: Endogenous protein, immunoprecipitated from whole cell extracts or stained in fixed cells; also called Gate-Keeper; GK
T1 sequence (looked up): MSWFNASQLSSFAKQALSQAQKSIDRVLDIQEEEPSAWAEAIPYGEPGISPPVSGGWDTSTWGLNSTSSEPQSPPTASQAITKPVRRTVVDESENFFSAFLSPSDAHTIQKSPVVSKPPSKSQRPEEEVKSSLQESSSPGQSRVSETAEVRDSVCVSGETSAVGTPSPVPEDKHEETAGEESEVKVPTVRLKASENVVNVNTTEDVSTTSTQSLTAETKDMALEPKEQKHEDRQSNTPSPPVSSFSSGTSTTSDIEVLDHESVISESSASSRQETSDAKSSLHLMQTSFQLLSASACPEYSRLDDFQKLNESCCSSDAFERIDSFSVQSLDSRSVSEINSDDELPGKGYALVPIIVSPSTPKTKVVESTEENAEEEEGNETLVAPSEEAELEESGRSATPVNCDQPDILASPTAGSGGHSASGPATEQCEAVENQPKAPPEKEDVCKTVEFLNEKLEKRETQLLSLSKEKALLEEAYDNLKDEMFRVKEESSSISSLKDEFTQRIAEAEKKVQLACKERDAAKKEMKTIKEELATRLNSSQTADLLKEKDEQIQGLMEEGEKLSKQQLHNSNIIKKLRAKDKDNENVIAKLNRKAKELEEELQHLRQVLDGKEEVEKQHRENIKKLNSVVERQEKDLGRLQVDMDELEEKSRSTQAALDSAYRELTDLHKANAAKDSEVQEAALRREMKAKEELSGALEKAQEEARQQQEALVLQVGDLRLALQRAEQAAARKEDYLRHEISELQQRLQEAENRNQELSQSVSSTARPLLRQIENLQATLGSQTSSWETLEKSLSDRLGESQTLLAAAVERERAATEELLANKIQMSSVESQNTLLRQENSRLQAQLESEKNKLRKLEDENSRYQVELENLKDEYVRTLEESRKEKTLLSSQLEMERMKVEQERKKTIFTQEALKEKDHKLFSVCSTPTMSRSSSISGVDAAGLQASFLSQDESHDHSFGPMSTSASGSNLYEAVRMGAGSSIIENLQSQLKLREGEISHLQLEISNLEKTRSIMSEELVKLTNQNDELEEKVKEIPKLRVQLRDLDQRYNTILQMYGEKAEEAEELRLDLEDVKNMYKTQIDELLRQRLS
Assay: co-immunoprecipitation with αTMF/ARA160 from C2C12 extracts, Western blot with αStat1
From the text: FIG. 6 is an immunoprecipitation showing that TMF/ARA160 associates with cyclin D1 and Stat3 but not with Stat1, in serum starved C2C12 cells. […] Whole cell extracts from actively growing (lanes 1 and 5) or serum-starved cells (lanes 2-4 and 6-8) which were either untreated (lanes 1-4) or treated with MG132 (lanes 5-8), were resolved by 7% SDS-PAGE and exposed to αStat3 (upper panel); αcyclin D1 (middle panel); or αStat1 antibodies (lower panel), in a Western-blot analysis. […] TMF/ARA160 was immunoprecipitated from the extracts described in A. Precipitates were resolved by 7% SDS-PAGE and were reacted with αStat3 (upper panel); αStat1 (middle panel); or αcyclin D1 antibodies (lower panel), in a Western-blot analysis.

B1: Stat1 (endogenous protein of C2C12 cells) (other, UniProt P42225 2-749, looked up)
chain: SQWFELQQLDSKFLEQVHQLYDDSFPMEIRQYLAQWLEKQDWEHAAYDVSFATIRFHDLLSQLDDQYSRFSLENNFLLQHNIRKSKRNLQDNFQEDPVQMSMIIYNCLKEERKILENAQRFNQAQEGNIQNTVMLDKQKELDSKVRNVKDQVMCIEQEIKTLEELQDEYDFKCKTSQNREGEANGVAKSDQKQEQLLLHKMFLMLDNKRKEIIHKIRELLNSIELTQNTLINDELVEWKRRQQSACIGGPPNACLDQLQTWFTIVAETLQQIRQQLKKLEELEQKFTYEPDPITKNKQVLSDRTFLLFQQLIQSSFVVERQPCMPTHPQRPLVLKTGVQFTVKSRLLVKLQESNLLTKVKCHFDKDVNEKNTVKGFRKFNILGTHTKVMNMEESTNGSLAAELRHLQLKEQKNAGNRTNEGPLIVTEELHSLSFETQLCQPGLVIDLETTSLPVVVISNVSQLPSGWASILWYNMLVTEPRNLSFFLNPPCAWWSQLSEVLSWQFSSVTKRGLNADQLSMLGEKLLGPNAGPDGLIPWTRFCKENINDKNFSFWPWIDTILELIKNDLLCLWNDGCIMGFISKERERALLKDQQPGTFLLRFSESSREGAITFTWVERSQNGGEPDFHAVEPYTKKELSAVTFPDIIRNYKVMAAENIPENPLKYLYPNIDKDHAFGKYYSRPKEAPEPMELDDPKRTGYIKTELISVSEVHPSRLQTTDNLLPMSPEEFDEMSRIVGPEFDSMMSTV
- binding result: no binding
